Laboratory results taken from the Human Domainome abundance scans (Beltran et al. 2025).
± gives the uncertainty stated by the source.

B1: Bromodomain adjacent to zinc finger domain protein 2B, residues 1927 to 1982; numbered along this chain, Q9UIF8 (parent)
chain: KSIMKVYCQICRKGDNEELLLLCDGCDKGCHTYCHRPKITTIPDGDWFCPACIAKA

Variants of: B1
Assay: abundance fitness (aPCA) (normalised: wild type 0, dead -1); higher = more abundant; growth selection in yeast, the domain comes from the species named
Conditions: Homo sapiens
In the case of I39S, the abundance fitness is reported as -0.087 ± 0.081.
For I39A, the abundance fitness was -0.068 ± 0.084.
Variant I39T has an abundance fitness of -0.124 ± 0.12.
I39G gave an abundance fitness of -0.1 ± 0.063.
I39H showed an abundance fitness of -0.189 ± 0.18.
Variant I39M has an abundance fitness of 0.039 ± 0.1.
Variant I39V has an abundance fitness of -0.031 ± 0.08.
Variant I39N has an abundance fitness of 0.002 ± 0.18.
For I39E, the abundance fitness was 0.04 ± 0.099.
In the case of I39C, the abundance fitness is reported as 0.011 ± 0.12.
For I39D, the abundance fitness was -0.194 ± 0.13.
In the case of I39W, the abundance fitness is reported as -0.137 ± 0.095.
Variant I39Q has an abundance fitness of -0.059 ± 0.095.
I39P gave an abundance fitness of -0.266 ± 0.12.
C49P showed an abundance fitness of -0.993 ± 0.16.
For C49M, the abundance fitness was -0.859 ± 0.17.
C49F showed an abundance fitness of -1.04 ± 0.28.
Variant C49A has an abundance fitness of -0.82 ± 0.16.
For C49G, the abundance fitness was -0.788 ± 0.066.
With C49I the abundance fitness was -0.859 ± 0.22.
Variant C49N has an abundance fitness of -0.816 ± 0.24.
With C49D the abundance fitness was -0.244 ± 0.16.
In the case of C49L, the abundance fitness is reported as -1.04 ± 0.13.
With C49K the abundance fitness was -0.83 ± 0.14.
With C49H the abundance fitness was -0.333 ± 0.21.
G29W gave an abundance fitness of -0.147 ± 0.079.
In the case of G29Y, the abundance fitness is reported as -0.093 ± 0.15.
Work on T32S yielded an abundance fitness of 0.052 ± 0.091.
In the case of T32N, the abundance fitness is reported as -0.133 ± 0.2.
Work on T32F yielded an abundance fitness of -0.235 ± 0.14.
For T32L, the abundance fitness was 0.026 ± 0.079.
Work on T32Q yielded an abundance fitness of -0.131 ± 0.12.
Variant T32E has an abundance fitness of -0.27 ± 0.097.
Work on T32M yielded an abundance fitness of -0.048 ± 0.1.
T32C gave an abundance fitness of -0.333 ± 0.11.
Variant T32H has an abundance fitness of -0.111 ± 0.16.
In the case of T32I, the abundance fitness is reported as 0.004 ± 0.11.
For T32K, the abundance fitness was -0.156 ± 0.1.
With T32Y the abundance fitness was -0.019 ± 0.17.
T32P showed an abundance fitness of -0.271 ± 0.11.
Work on T32W yielded an abundance fitness of -0.141 ± 0.096.
For T32A, the abundance fitness was -0.065 ± 0.075.
Variant T32R has an abundance fitness of -0.078 ± 0.071.
With T32G the abundance fitness was -0.118 ± 0.064.
T32V showed an abundance fitness of -0.053 ± 0.079.
T40M gave an abundance fitness of -0.024 ± 0.14.
T40P gave an abundance fitness of 0.031 ± 0.13.
Work on T40F yielded an abundance fitness of -0.015 ± 0.12.
For T40W, the abundance fitness was -0.082 ± 0.11.
T40Y showed an abundance fitness of -0.11 ± 0.16.
Work on T40S yielded an abundance fitness of -0.131 ± 0.079.
T40L gave an abundance fitness of -0.049 ± 0.083.
Variant T40I has an abundance fitness of -0.123 ± 0.13.
T40R gave an abundance fitness of -0.043 ± 0.069.
With T40A the abundance fitness was -0.164 ± 0.1.
In the case of T40N, the abundance fitness is reported as -0.232 ± 0.14.
Work on T40E yielded an abundance fitness of -0.026 ± 0.12.
T40V showed an abundance fitness of -0.056 ± 0.098.
Variant T40K has an abundance fitness of 0.072 ± 0.15.
Work on T40D yielded an abundance fitness of -0.095 ± 0.21.
With T40G the abundance fitness was -0.106 ± 0.079.
Variant T40H has an abundance fitness of -0.128 ± 0.14.
P37M showed an abundance fitness of -0.227 ± 0.094.
Variant P37W has an abundance fitness of -0.31 ± 0.1.
For P37S, the abundance fitness was -0.202 ± 0.081.
For P37H, the abundance fitness was -0.188 ± 0.11.
With P37D the abundance fitness was -0.195 ± 0.16.
In the case of P37G, the abundance fitness is reported as -0.161 ± 0.098.
With P37E the abundance fitness was 0.026 ± 0.14.
For P37F, the abundance fitness was -0.333 ± 0.12.
P37Y showed an abundance fitness of -0.602 ± 0.15.
For P37N, the abundance fitness was -0.166 ± 0.13.
Work on P37V yielded an abundance fitness of -0.228 ± 0.1.
P37C showed an abundance fitness of -0.32 ± 0.11.
P37R showed an abundance fitness of -0.227 ± 0.071.
P37T showed an abundance fitness of -0.148 ± 0.099.
Variant P37Q has an abundance fitness of -0.239 ± 0.1.
P37A gave an abundance fitness of -0.056 ± 0.1.
Variant P37L has an abundance fitness of -0.177 ± 0.069.
F48L gave an abundance fitness of -0.064 ± 0.097.
F48S gave an abundance fitness of 0.037 ± 0.08.
F48K gave an abundance fitness of 0.085 ± 0.14.
In the case of F48Q, the abundance fitness is reported as -0.04 ± 0.12.
F48H showed an abundance fitness of -0.029 ± 0.15.
With F48M the abundance fitness was -0.01 ± 0.14.
F48I gave an abundance fitness of 0.07 ± 0.2.
For F48W, the abundance fitness was -0.07 ± 0.098.
For F48V, the abundance fitness was 0.044 ± 0.089.
In the case of F48E, the abundance fitness is reported as -0.028 ± 0.1.
For F48C, the abundance fitness was 0.037 ± 0.12.
For F48T, the abundance fitness was 0.008 ± 0.12.
For F48R, the abundance fitness was 0 ± 0.069.
F48N gave an abundance fitness of 0.192 ± 0.15.
For F48A, the abundance fitness was 0.021 ± 0.089.
Work on F48G yielded an abundance fitness of -0.06 ± 0.069.
F48P showed an abundance fitness of -0.132 ± 0.12.
Work on F48Y yielded an abundance fitness of 0.039 ± 0.16.
With D44S the abundance fitness was -0.031 ± 0.086.
Work on D44K yielded an abundance fitness of -0.235 ± 0.13.
Work on D44V yielded an abundance fitness of -0.105 ± 0.1.
With D44N the abundance fitness was 0.111 ± 0.19.
D44E gave an abundance fitness of -0.206 ± 0.1.
D44Q showed an abundance fitness of -0.282 ± 0.24.
D44M gave an abundance fitness of -0.083 ± 0.12.
Variant D44H has an abundance fitness of -0.022 ± 0.17.
Work on D44R yielded an abundance fitness of -0.086 ± 0.082.
For D44T, the abundance fitness was -0.078 ± 0.12.
Work on D44I yielded an abundance fitness of -0.018 ± 0.28.
Work on D44L yielded an abundance fitness of -0.085 ± 0.087.
For D44W, the abundance fitness was -0.205 ± 0.12.
In the case of D44A, the abundance fitness is reported as -0.11 ± 0.1.
For D44G, the abundance fitness was -0.017 ± 0.077.
D44Y gave an abundance fitness of -0.222 ± 0.2.
For D44P, the abundance fitness was 0.048 ± 0.11.
In the case of P43F, the abundance fitness is reported as -0.451 ± 0.17.
P43T gave an abundance fitness of -0.003 ± 0.13.
Work on P43D yielded an abundance fitness of -0.071 ± 0.2.
P43K showed an abundance fitness of -0.08 ± 0.15.
Work on P43M yielded an abundance fitness of -0.269 ± 0.17.
With P43N the abundance fitness was -0.245 ± 0.23.
For P43I, the abundance fitness was 0.092 ± 0.27.
With P43R the abundance fitness was -0.083 ± 0.081.
With P43H the abundance fitness was -0.217 ± 0.14.
With P43G the abundance fitness was -0.016 ± 0.079.
With P43S the abundance fitness was 0.053 ± 0.1.
Variant P43A has an abundance fitness of -0.006 ± 0.083.
P43Q gave an abundance fitness of 0.024 ± 0.12.
P43C showed an abundance fitness of -0.095 ± 0.14.
P43E showed an abundance fitness of -0.041 ± 0.11.
P43W showed an abundance fitness of -0.188 ± 0.14.
Work on P43L yielded an abundance fitness of -0.163 ± 0.1.
Variant P43Y has an abundance fitness of -0.263 ± 0.19.
P43V showed an abundance fitness of -0.127 ± 0.084.
T41E gave an abundance fitness of 0.023 ± 0.11.
Variant T41L has an abundance fitness of -0.187 ± 0.1.
T41H gave an abundance fitness of -0.041 ± 0.16.
For T41V, the abundance fitness was -0.057 ± 0.074.
Variant T41Q has an abundance fitness of -0.018 ± 0.17.
Variant T41M has an abundance fitness of -0.108 ± 0.12.
T41C showed an abundance fitness of -0.09 ± 0.14.
T41A showed an abundance fitness of -0.112 ± 0.078.
With T41K the abundance fitness was 0.085 ± 0.24.
Work on T41P yielded an abundance fitness of 0.074 ± 0.16.
Variant T41R has an abundance fitness of -0.048 ± 0.072.
For T41G, the abundance fitness was 0.001 ± 0.061.
T41W gave an abundance fitness of -0.167 ± 0.11.
For T41Y, the abundance fitness was -0.217 ± 0.16.
In the case of T41S, the abundance fitness is reported as -0.091 ± 0.094.
Work on T41D yielded an abundance fitness of -0.085 ± 0.11.
T41N gave an abundance fitness of -0.059 ± 0.16.
W47K showed an abundance fitness of -0.127 ± 0.11.
With W47D the abundance fitness was -0.15 ± 0.11.
Work on W47E yielded an abundance fitness of -0.338 ± 0.092.
For W47N, the abundance fitness was -0.186 ± 0.17.
W47C gave an abundance fitness of -0.287 ± 0.12.
For W47R, the abundance fitness was -0.115 ± 0.073.
With W47I the abundance fitness was -0.092 ± 0.19.
Variant W47P has an abundance fitness of -0.165 ± 0.11.
Work on W47V yielded an abundance fitness of -0.338 ± 0.091.
W47L gave an abundance fitness of -0.312 ± 0.083.
Variant W47F has an abundance fitness of -0.345 ± 0.17.
W47Y gave an abundance fitness of -0.165 ± 0.19.
Variant W47T has an abundance fitness of -0.213 ± 0.1.
W47Q gave an abundance fitness of -0.203 ± 0.12.
W47A gave an abundance fitness of -0.168 ± 0.087.
With W47H the abundance fitness was -0.169 ± 0.22.
Work on W47G yielded an abundance fitness of -0.289 ± 0.072.
